Results taken from paper PMC6296668.
“And” between values parts separate entries of the source, which are not always exact repeats. Identical values can stand only once.

Tests used:
[1] = biological target: CAP256 SU gp140-FL-IP (HIV-1 subtype C (CAP256 SU)); assay: native gel or EMSA; NativePAGE Novex 3-12% Bis-Tris gels (BN-PAGE) of lectin-purified protein, Coomassie stain or anti-gp160 western blot; oligomer judged by molecular weight against NativeMark standard
[2] = biological target: CAP256 gp140-FL-IP-His (HIV-1 subtype C (CAP256 SU)); assay: as above

Row | Substance | stoichiometry N [1] | stoichiometry N [2]
1 | CAP256 SU gp140-FL-IP (domain or fragment) | 3 | –
2 | CAP256 gp140-FL-IP-His (domain or fragment) | – | 3 and 2
